Entries after “also recorded” stand apart in the source; their conditions may differ.
B1: P106L: A. thaliana EPSPS with Proline at position 106 changed into Leucine (SEQ ID NO:12) (protein, listed as Arabidopsis thaliana)
chain: MAQVSRICNGVQNPSLISNLSKSSQRKSPLSVSLKTQQHPRAYPISSSWGLKKSGMTLIGSELRPLKVMSSVSTAEKASEIVLQPIREISGLIKLPGSKSLSNRILLLAALSEGTTVVDNLLNSDDINYMLDALKRLGLNVETDSENNRAVVEGCGGIFPASIDSKSDIELYLGNAGTAMRLLTAAVTAAGGNASYVLDGVPRMRERPIGDLVVGLKQLGADVECTLGTNCPPVRVNANGGLPGGKVKLSGSISSQYLTALLMSAPLALGDVEIEIVDKLISVPYVEMTLKLMERFGVSVEHSDSWDRFFVKGGQKYKSPGNAYVEGDASSASYFLAGAAITGETVTVEGCGTTSLQGDVKFAEVLEKMGCKVSWTENSVTVTGPPRDAFGMRHLRAIDVNMNKMPDVAMTLAVVALFADGPTTIRDVASWRVKETERMIAICTELRKLGATVEEGSDYCVITPPKKVKTAEIDTYDDHRMAMAFSLAACADVPITINDPGCTRKTFPDYFQVLERITKH
B2: wild type (WT): Arabidopsis thaliana EPSPS (At2g45300), unmutated, SEQ ID NO:9/10 (protein, listed as Arabidopsis thaliana)
chain: MAQVSRICNGVQNPSLISNLSKSSQRKSPLSVSLKTQQHPRAYPISSSWGLKKSGMTLIGSELRPLKVMSSVSTAEKASEIVLQPIREISGLIKLPGSKSLSNRILLLAALSEGTTVVDNLLNSDDINYMLDALKRLGLNVETDSENNRAVVEGCGGIFPASIDSKSDIELYLGNAGTAMRPLTAAVTAAGGNASYVLDGVPRMRERPIGDLVVGLKQLGADVECTLGTNCPPVRVNANGGLPGGKVKLSGSISSQYLTALLMSAPLALGDVEIEIVDKLISVPYVEMTLKLMERFGVSVEHSDSWDRFFVKGGQKYKSPGNAYVEGDASSASYFLAGAAITGETVTVEGCGTTSLQGDVKFAEVLEKMGCKVSWTENSVTVTGPPRDAFGMRHLRAIDVNMNKMPDVAMTLAVVALFADGPTTIRDVASWRVKETERMIAICTELRKLGATVEEGSDYCVITPPKKVKTAEIDTYDDHRMAMAFSLAACADVPITINDPGCTRKTFPDYFQVLERITKH
B3: N44D: A. thaliana EPSPS with Asparagine at position 44 changed into Aspartic Acid (SEQ ID NO:11) (protein, listed as Arabidopsis thaliana)
chain: MAQVSRICNGVQNPSLISNLSKSSQRKSPLSVSLKTQQHPRAYPISSSWGLKKSGMTLIGSELRPLKVMSSVSTAEKASEIVLQPIREISGLIKLPGSKSLSNRILLLAALSEGTTVVDDLLNSDDINYMLDALKRLGLNVETDSENNRAVVEGCGGIFPASIDSKSDIELYLGNAGTAMRPLTAAVTAAGGNASYVLDGVPRMRERPIGDLVVGLKQLGADVECTLGTNCPPVRVNANGGLPGGKVKLSGSISSQYLTALLMSAPLALGDVEIEIVDKLISVPYVEMTLKLMERFGVSVEHSDSWDRFFVKGGQKYKSPGNAYVEGDASSASYFLAGAAITGETVTVEGCGTTSLQGDVKFAEVLEKMGCKVSWTENSVTVTGPPRDAFGMRHLRAIDVNMNKMPDVAMTLAVVALFADGPTTIRDVASWRVKETERMIAICTELRKLGATVEEGSDYCVITPPKKVKTAEIDTYDDHRMAMAFSLAACADVPITINDPGCTRKTFPDYFQVLERITKH
B4: N44D+P106L: A. thaliana EPSPS double mutant N44D and P106L (SEQ ID NO:13) (protein, listed as Arabidopsis thaliana)
chain: MAQVSRICNGVQNPSLISNLSKSSQRKSPLSVSLKTQQHPRAYPISSSWGLKKSGMTLIGSELRPLKVMSSVSTAEKASEIVLQPIREISGLIKLPGSKSLSNRILLLAALSEGTTVVDDLLNSDDINYMLDALKRLGLNVETDSENNRAVVEGCGGIFPASIDSKSDIELYLGNAGTAMRLLTAAVTAAGGNASYVLDGVPRMRERPIGDLVVGLKQLGADVECTLGTNCPPVRVNANGGLPGGKVKLSGSISSQYLTALLMSAPLALGDVEIEIVDKLISVPYVEMTLKLMERFGVSVEHSDSWDRFFVKGGQKYKSPGNAYVEGDASSASYFLAGAAITGETVTVEGCGTTSLQGDVKFAEVLEKMGCKVSWTENSVTVTGPPRDAFGMRHLRAIDVNMNKMPDVAMTLAVVALFADGPTTIRDVASWRVKETERMIAICTELRKLGATVEEGSDYCVITPPKKVKTAEIDTYDDHRMAMAFSLAACADVPITINDPGCTRKTFPDYFQVLERITKH
B5: N44D+S179N: A. thaliana EPSPS double mutant N44D and S179N (SEQ ID NO:16) (protein, listed as Arabidopsis thaliana)
chain: MAQVSRICNGVQNPSLISNLSKSSQRKSPLSVSLKTQQHPRAYPISSSWGLKKSGMTLIGSELRPLKVMSSVSTAEKASEIVLQPIREISGLIKLPGSKSLSNRILLLAALSEGTTVVDDLLNSDDINYMLDALKRLGLNVETDSENNRAVVEGCGGIFPASIDSKSDIELYLGNAGTAMRPLTAAVTAAGGNASYVLDGVPRMRERPIGDLVVGLKQLGADVECTLGTNCPPVRVNANGGLPGGKVKLSGSISNQYLTALLMSAPLALGDVEIEIVDKLISVPYVEMTLKLMERFGVSVEHSDSWDRFFVKGGQKYKSPGNAYVEGDASSASYFLAGAAITGETVTVEGCGTTSLQGDVKFAEVLEKMGCKVSWTENSVTVTGPPRDAFGMRHLRAIDVNMNKMPDVAMTLAVVALFADGPTTIRDVASWRVKETERMIAICTELRKLGATVEEGSDYCVITPPKKVKTAEIDTYDDHRMAMAFSLAACADVPITINDPGCTRKTFPDYFQVLERITKH
B6: G101A: EPSPS with Glycine at position 101 changed into Alanine (position 96 in E. coli; SEQ ID NO:17) (protein, listed as Arabidopsis thaliana)
chain: MAQVSRICNGVQNPSLISNLSKSSQRKSPLSVSLKTQQHPRAYPISSSWGLKKSGMTLIGSELRPLKVMSSVSTAEKASEIVLQPIREISGLIKLPGSKSLSNRILLLAALSEGTTVVDNLLNSDDINYMLDALKRLGLNVETDSENNRAVVEGCGGIFPASIDSKSDIELYLGNAATAMRPLTAAVTAAGGNASYVLDGVPRMRERPIGDLVVGLKQLGADVECTLGTNCPPVRVNANGGLPGGKVKLSGSISSQYLTALLMSAPLALGDVEIEIVDKLISVPYVEMTLKLMERFGVSVEHSDSWDRFFVKGGQKYKSPGNAYVEGDASSASYFLAGAAITGETVTVEGCGTTSLQGDVKFAEVLEKMGCKVSWTENSVTVTGPPRDAFGMRHLRAIDVNMNKMPDVAMTLAVVALFADGPTTIRDVASWRVKETERMIAICTELRKLGATVEEGSDYCVITPPKKVKTAEIDTYDDHRMAMAFSLAACADVPITINDPGCTRKTFPDYFQVLERITKH

How the values were obtained:
E. coli = assay: Complementation assay in E. coli using A. thaliana EPSPS variants, growth in M9 medium with glyphosate; type: cell-based; details: 30 mM glyphosate; for glyphosate resistance (bacterial growth, OD600 over time): E. coli BL21 expressing A. thaliana EPSPS variant, M9 medium, 1 mM IPTG, 25° C.
Source text: Each of these EPSPS variants was then cloned as a 1576 bps EcoRI-BamHI fragment into the vector pET302 NT HIS (Invitrogen, product K630203), fusing the EPSPS variants to a 6× His tag and allowing inducible protein expression with IPTG in E. coli. These constructs were introduced into the E. coli expression strain BL21 OAS (Invitrogen) for complementation assays.
E. coli is unable to grow in minimal M9 growth medium supplemented with glyphosate due to inhibition of the activity of the endogenous bacterial EPSP synthase AroA. Bacterial growth can be restored by complementation with a glyphosate resistant plant EPSPS gene. The E. coli strains containing the A. thaliana EPSPS variants were grown overnight in 10 ml LB medium containing 100 μg/ml carbenicillin (Duchefa). Strains were then diluted 4 fold in the same medium and allowed to grow for a further 4 hours. The […] of each culture was then measured and 1.5 ml culture was centrifuged at 4000 rpm for 10 minutes. The bacterial pellet was resuspended in 500 μl M9 medium (12.8 g/l Na2HPO4, 3.0 g/l KH2PO4, 0.5 g/l NaCl, 1.0 g/l NH4Cl, 2.0 g/l glucose, 0.4940 g/l MgSO4.7H2O, 15 mg/l CaCl2.2H2O, thiamine and 10 mg/l FeSO4.7H2O) used to inoculate 10 ml M9 medium containing 1 mM IPTG and 100 μg/ml carbenicillin and 30 mM glyphosate to an OD600 of 0.1. Identical cultures for each strain were also made lacking glyphosate and these were used to assess the growth of each strain without selection. The cultures were then grown at 25° C. and the OD600 was measured over time to assess bacterial growth (see FIG. 2).

Arabidopsis thaliana = assay: Glyphosate tolerance of transgenic Arabidopsis lines (average seedling weight +Gly/-Gly); type: in vivo; details: transgenic Arabidopsis lines overexpressing EPSPS gene; MS20 medium, 400 μM glyphosate, 4 weeks
Experimental: The mutated Arabidopsis EPSPS genes tested in E. coli (see Example 1) were cloned into the binary vector pEARLEYGATE100 (The Plant J. 2006; 45:616-629). Briefly, the EPSPS genes were isolated as BamHI and SacI fragments comprising the complete ORF's and then inserted into the same unique sites present in the binary vector. […] This series of binary vectors were electroporated to the Agrobacterium tumefaciens strain GV2260 and bacterial colonies were selected on LB medium containing 100 μg/ml spectinomycin, using methods known to the skilled person.
Seeds of Arabidopsis thaliana (ecotype Colombia) were sown on soil and once germinated a single seedling was placed in a 5 cm×5 cm pot and allowed to grow until the first influorescence appeared. At this stage the plants were then transformed using the floral dip method. Briefly, the Agrobacterium strains were grown overnight in 50 ml liquid LB medium containing 100 μg/ml spectinomycin at 28° C. and then this culture was centrifuged at 4000 rpm for 10 minutes. The pellets were then resuspended in a 5% sucrose solution containing 0.02% Silwet (Lehle Seeds). The Arabidopsis plants were dipped into this culture and then incubated overnight in the dark at 25° C. The plants were then allowed to grow further in the greenhouse and after 7 days the dipping procedure was repeated. The plants were then allowed to set seed which was then germinated on soil. For selection of transformed Arabidopsis seedlings, a solution of glufosinate was prepared (0.1 mg/ml glufosinate ammonium+0.005% silwet) and sprayed on the seedlings. After 7 days the surviving seedlings were identified, grown to maturity and the seeds were collected.
We performed a segregation analysis on the seed of the transgenic lines to estimate the T-DNA copy number. Seed from each of the transgenic lines was sterilized with a 2% hypochlorite solution and washed with sterile water. Approximately 100 seeds per line were then placed on MS20 medium containing 0.1 mg/ml glufosinate ammonium and the number of surviving seedlings was scored after 20 days. The lines with a single T-DNA copy that segregated […] (resistance:sensitivity) to the glufosinate were selected for further phenotyping.
Seeds from the transgenic Arabidopsis lines were sterilized and then placed on MS20 medium containing 0.1 mg/ml glufosinate ammonium and +/−400 μM glyphosate and were grown for 4 weeks. After this period the seedlings were removed from the growth plates and the average seedling weight was determined. The degree of glyphosate resistance for each line was determined by dividing the average seedling weight in the presence of glyphosate by the average seedling weight found in the absence of glyphosate.

[1] = E. coli EPSPS, Eschenburg et al. 2002; cited from earlier work

| Molecule | glyphosate resistance (bacterial growth, OD600 over time) (E. coli) | glyphosate resistance (ratio of average seedling weight +Gly/-Gly) (Arabidopsis thaliana) | enhancement of resistance levels (E. coli; N44D combined with P106L, after 18 hours of growth) | Km of PEP [1] |
| --- | --- | --- | --- | --- |
| B1 | good level of resistance | reasonable resistance | – | – |
| B2 | able to complement bacterial growth at later time points | – | – | – |
| B3 | some resistance to glyphosate; also recorded: provides tolerance to glyphosate | lead to glyphosate resistance | – | – |
| B4 | strongly enhanced | enhanced | 2.5 fold | – |
| B5 | – | confers resistance | – | – |
| B6 | – | – | – | increase |
